Laboratory results reported in PMC7261407.

Target: trimeric gp140 clade A HIV-1 92/UG/037 (HIV-1 clade A strain 92/UG/037)
Assay: SPR

GNA (natural protein)
Kd: 7.2 nM
